First the molecules themselves.
B1: CPEB3 Ribozyme (parent)
chain: GGGGGCCACAGCAGAAGCGUUCACGUCGCGGCCCCUGUCAGAUUCUGGUGAAUCUGCGAAUUCUGCUGU

In this data set the parent is B1. The data set is described as follows: self-cleavage, relative activity (ratio to wild type); higher = more cleavage; co-transcriptional.
Turning to U36A U46G, the self-cleavage was 0.255.
The value for U36C G65A was 0.67; that for U36C G65C was 0.414; that for U36G G50U was 0.306.
Take U36G A60U: the self-cleavage stood at 0.181.
The value for G37A G65C was 0.258; that for G37A G65A was 0.252; that for G37A G65U was 0.325.
The same measure for U36A U61C: 0.171; for U36A U43A: 0.249; for U36A U43G: 0.214.
As for G37C C54U, the self-cleavage was 0.25.
The value for G37C C54A was 0.201; that for G37A C54A was 0.235; that for G37A C54U was 0.417.
As for G37A, the self-cleavage is 0.32.
The value for G37C was 0.241; that for G37A C63U was 0.364; that for G37A C63A was 0.228.
Take U36C U62A: the self-cleavage was 0.654.
The value for U36C U62G was 0.581; that for U36A G65C was 0.31; that for U36A G65U was 0.203.
With G37A G50U, the self-cleavage came out at 0.28.
On to G37A G50C, for which the self-cleavage turned out to be 0.215.
The value for U36A A59C was 0.157; that for U36A A59G was 0.263.
On to G37A U46C, for which the self-cleavage turned out to be 0.338.
The same measure for G37A U46A: 0.375; for G37A U46G: 0.281.
The value for U36G U43A was 0.26; that for U36G U43G was 0.231.
For the variant U36G U43C, the self-cleavage amounted to 0.268.
The value for G37A C45U was 0.351; that for G37A C45G was 0.281; that for U36C C63G was 0.548.
The value for U36C C63A was 0.587.
The same measure for U36A C45A: 0.158; for U36A C45G: 0.282.
As to U36A G47C, the self-cleavage is 0.269.
The value for U36A G47U was 0.321; that for U36A G47A was 0.295.
Consider U36C A60U, for which the self-cleavage is 0.376.
The same measure for U36C A60G: 0.636.
Regarding U36C A60C, the self-cleavage turned out to be 0.268.
The same measure for U36G A42G: 0.225; for C35U U62A: 0.813.
In the case of C35U U62G, the self-cleavage amounted to 0.804.
In the case of U36G U44A, the self-cleavage turned out to be 0.246.
On to U36G U44G, for which the self-cleavage came out at 0.219.
The same measure for U36A A40C: 0.223; for U36A A40G: 0.248.
As for U36G U49C, the self-cleavage came to 0.146.
On to U36A U49A, for which the self-cleavage amounted to 0.263.
For the variant U36A U49G, the self-cleavage was determined as 0.225.
The same measure for G37A G68U: 0.385; for G37A G68A: 0.377; for U36C G47C: 0.993.
For the variant U36C G47U, the self-cleavage was determined as 0.892.
Turning to U36C G47A, the self-cleavage stood at 0.953.
The value for U36C U44C was 0.688; that for U36C U44A was 0.854; that for U36C U44G was 0.859.
Regarding U36A U55C, the self-cleavage is 0.181.
For the variant U36A U55G, the self-cleavage worked out at 0.289.
The value for U36A U55A was 0.209; that for C35U U38A was 0.901; that for C35U U38G was 0.184.
The value for C35U U38C was 0.876; that for U36A C57G was 0.231; that for U36A C57U was 0.233.
Take U36A C57A: the self-cleavage worked out at 0.213.
The same measure for G37A U64G: 0.254; for G37A U64A: 0.246.
With C35U U49C, the self-cleavage was 0.956.
The same measure for C35U U49G: 0.909.
The value for U36C G48U was 0.981; that for U36C G48C was 0.948.
The same measure for U36C G48A: 0.94.
Turning to G37C C57G, the self-cleavage stood at 0.189.
With G37C C57U, the self-cleavage came to 0.192.
The value for G37C C57A was 0.242; that for G37C C45A was 0.168.
For the variant G37C C45U, the self-cleavage was found to be 0.203.
As to G37A A51U, the self-cleavage turned out to be 0.285.
Turning to U36C U67G, the self-cleavage came out at 0.949.
With U36G G41C, the self-cleavage is 0.278.
The value for U36G G41U was 0.373.
As to U36G G41A, the self-cleavage was found to be 0.144.
The same measure for G37C C63G: 0.25.
Regarding G37C C63U, the self-cleavage came out at 0.281.
Turning to G37C C63A, the self-cleavage turned out to be 0.261.
The value for U36C U53G was 0.544; that for U36C U53C was 0.806.
The value for U36C U53A was 0.767; that for U36A C54U was 0.35.
The same measure for U36G U55A: 0.238; for U36C A51U: 0.879.
Consider U36C A51C, for which the self-cleavage stood at 0.88.
C35U G37A: the self-cleavage was 0.253.
In the case of U36A G56U, the self-cleavage was found to be 0.177.
On to U36A G56C, for which the self-cleavage stood at 0.201.
The value for U36G C57G was 0.109.
On to U36G C66A, for which the self-cleavage amounted to 0.232.
Regarding U36G C66U, the self-cleavage worked out at 0.22.
U36G C66G: the self-cleavage amounted to 0.167.
The same measure for G37A C57G: 0.241; for G37A C57U: 0.247; for G37A C57A: 0.217.
With G37A C39A, the self-cleavage worked out at 0.236.
The value for G37A C39U was 0.372; that for U36C A40U was 0.64; that for U36C A40C was 0.506.
As to U36C A40G, the self-cleavage came to 0.858.
In the case of C35U G48C, the self-cleavage is 0.964.
The same measure for C35U G48A: 1.01; for C35U G48U: 0.987; for G37C A60U: 0.306.
Turning to G37C A60C, the self-cleavage turned out to be 0.236.
For U36G G47C, the self-cleavage was determined as 0.293.
For U36G G47A, the self-cleavage came to 0.252.
Regarding G37A U49G, the self-cleavage stood at 0.37.
The value for G37A G47A was 0.312; that for G37A G47C was 0.308.
With G37A G47U, the self-cleavage is 0.36.
For C35U U55G, the self-cleavage was 0.653.
In the case of C35U U55C, the self-cleavage is 0.699.
The same measure for G37C A59C: 0.183; for G37C A59G: 0.234; for C35U U36A: 0.212.
The value for C35U U36C was 0.941.
The same measure for C35U U36G: 0.237; for U36C U61A: 0.557; for U36C U61C: 0.524.
For the variant U36C A52U, the self-cleavage was 0.915.
The same measure for U36C A52C: 0.997; for U36C G41U: 0.664.
As for U36C G41A, the self-cleavage is 0.507.
The same measure for U36C G41C: 0.552.
In the case of U36C G58U, the self-cleavage turned out to be 0.963.
The value for U36G A40G was 0.219; that for U36G A40C was 0.236; that for G37A U67A was 0.389.
The value for U36A U64G was 0.202; that for U36A U64A was 0.232; that for C35U G41C was 0.632.
The value for C35U G41U was 0.745; that for U36C G68A was 0.932; that for U36C G68C was 0.991.
With U36G U69A, the self-cleavage stood at 0.297.
The same measure for U36A U53A: 0.282.
Regarding U36A U53G, the self-cleavage was 0.286.
As to U36C A42U, the self-cleavage was 0.869.
The same measure for U36C A42G: 0.77.
The same measure for U36C A42C: 0.732; for G37A A59C: 0.213.
The value for G37A A59G was 0.36; that for G37C C66A was 0.222.
For G37C C66G, the self-cleavage stood at 0.177.
As for G37C C66U, the self-cleavage turned out to be 0.246.
With G37A U55C, the self-cleavage worked out at 0.216.
Regarding G37A U55A, the self-cleavage was 0.275.
The same measure for G37A U62A: 0.225; for G37A U62C: 0.321.
The value for G37A A60G was 0.209; that for G37C A51C was 0.251; that for G37C A51U was 0.171.
